The record followed here is paper PMC11480844 (2024).

The chains are these.
B1: H2-Kb / Ed5 (parent complex)
chain 1: GDSVTQTEGPVTVSESESLIINCTYSATSIAYPNLFWYVRYPGEGLQLLLKVITAGQKGSSRGFEATYNKETTSFHLQKASVQESDSAVYYCALGSYNQGKLIFGQGTKLSIKP
chain 2: DTTVKQNPRYKLARVGKPVNLICSQTMNHDTMYWYQKKPNQAPKLLLFYYDKILNREADTFEKFQSSRPNNSFCSLYIGSAGLEYSAMYLCASSRRLGASQNTLYFGAGTRLSVL
chain 3: not shown
chain 4: IQKTPQIQVYSRHPPENGKPNILNCYVTQFHPPHIEIQMLKNGKKIPKVEMSDMSFSKDWSFYILAHTEFTPTETDTYACRVKHDSMAEPKTVYWDRDM
chain 5: SIINFEKL
B2: H2-Kb / Ed21 (parent complex)
chain 1: AQSVTQPDARVTVSEGASLQLRCKYSYFGTPYLFWYVQYPRQGLQLLLKYYPGDPVVQGVNGFEAEFSKSNSSFHLRKASVHWSDWAVYFCAVSMSGGYKVVFGSGTRLLVSP
chain 2: DSGVVQSPRHIIKEKGGRSVLTCIPISGHSNVVWYQQTLGKELKFLIQHYEKVERDKGFLPSRFSVQQFDDYHSEMNMSALELEDSAMYFCASSPRQTDYTFGSGTRLLVI
chain 3: not shown
chain 4: B1 chain 4
chain 5: SIINFEKL
Further: test concentration or dose not given here.

Variants of B1 are the subject of the first assay. The assay can be described thus: % of reporter cells activated (NFAT-GFP), raw.
chain 5 I3K: the ratio to parent was determined as 0.682.

As to chain 5 I3P, the ratio to parent worked out at 0.36.

Regarding chain 5 I3M, the ratio to parent came out at 0.723.

On to chain 5 I3N, for which the ratio to parent worked out at 0.164.

For the variant chain 5 I3L, the ratio to parent is 0.897.

As to chain 5 I3E, the ratio to parent turned out to be 0.287.

As to chain 5 I3D, the ratio to parent turned out to be 0.436.

chain 5 I3C: the ratio to parent worked out at 0.673.

Consider chain 5 I3Y, for which the ratio to parent was 0.0245.

Take chain 5 I3V: the ratio to parent is 0.661.

chain 5 I3F: the ratio to parent came to 0.0887.

For the variant chain 5 I3T, the ratio to parent was 0.512.

Take chain 5 I3Q: the ratio to parent was 0.162.

On to chain 5 I3S, for which the ratio to parent worked out at 0.329.

For the variant chain 5 I3W, the ratio to parent came out at 0.372.

For chain 5 I3R, the ratio to parent came to 0.064.

As to chain 5 K7S, the ratio to parent was 0.605.

For chain 5 K7V, the ratio to parent amounted to 0.62.

Turning to chain 5 K7G, the ratio to parent came out at 0.658.

With chain 5 K7T, the ratio to parent is 0.602.

With chain 5 K7R, the ratio to parent was 0.853.

Turning to chain 5 K7L, the ratio to parent is 0.728.

For chain 5 K7W, the ratio to parent was 0.543.

As for chain 5 K7Q, the ratio to parent was 0.648.

On to chain 5 K7P, for which the ratio to parent is 0.728.

For chain 5 K7C, the ratio to parent was 0.686.

Regarding chain 5 K7I, the ratio to parent amounted to 0.65.

On to chain 5 N4H, for which the ratio to parent was 0.11.

Consider chain 5 N4Q, for which the ratio to parent was found to be 0.00458.

Regarding chain 5 N4M, the ratio to parent came to 0.00113.

For the variant chain 5 N4F, the ratio to parent was determined as 0.0112.

On to chain 5 N4W, for which the ratio to parent was 0.0358.

Take chain 5 N4V: the ratio to parent is 0.0109.

Turning to chain 5 F5C, the ratio to parent was found to be 1.04.

Turning to chain 5 F5T, the ratio to parent was 0.887.

In the case of chain 5 F5P, the ratio to parent stood at 0.98.

Take chain 5 F5G: the ratio to parent is 0.698.

As to chain 5 F5L, the ratio to parent was 0.996.

Consider chain 5 F5Q, for which the ratio to parent stood at 0.951.

Take chain 5 F5N: the ratio to parent came to 0.855.

On to chain 5 F5D, for which the ratio to parent amounted to 0.92.

On to chain 5 I2P, for which the ratio to parent worked out at 1.04.

Regarding chain 5 I2Y, the ratio to parent stood at 0.642.

Consider chain 5 I2C, for which the ratio to parent was 0.958.

chain 5 I2S: the ratio to parent turned out to be 0.989.

As to chain 5 I2E, the ratio to parent was 0.852.

For chain 5 I2M, the ratio to parent came to 0.917.

As for chain 5 I2A, the ratio to parent was 1.01.

As for chain 5 I2G, the ratio to parent stood at 0.875.

Take chain 5 I2Q: the ratio to parent turned out to be 0.711.

With chain 5 I2K, the ratio to parent turned out to be 0.798.

On to chain 5 I2L, for which the ratio to parent turned out to be 0.974.

Consider chain 5 I2N, for which the ratio to parent came out at 0.749.

As to chain 5 E6M, the ratio to parent came to 0.443.

Regarding chain 5 E6R, the ratio to parent worked out at 0.0689.

With chain 5 E6N, the ratio to parent is 0.498.

Consider chain 5 E6L, for which the ratio to parent came out at 0.165.

As for chain 5 E6W, the ratio to parent amounted to 0.54.

Turning to chain 5 E6H, the ratio to parent worked out at 0.554.

chain 5 E6G: the ratio to parent turned out to be 0.939.

For the variant chain 5 E6F, the ratio to parent was 0.506.

Take chain 5 E6Y: the ratio to parent was found to be 0.633.

In the case of chain 5 E6T, the ratio to parent came to 0.622.

chain 5 E6D: the ratio to parent came out at 0.941.

For chain 5 L8V, the ratio to parent was found to be 0.546.

As to chain 5 L8P, the ratio to parent turned out to be 0.826.

Turning to chain 5 L8D, the ratio to parent came out at 0.747.

chain 5 L8C: the ratio to parent turned out to be 0.929.

As for chain 5 L8N, the ratio to parent was determined as 0.753.

For chain 5 L8F, the ratio to parent was 0.694.

Take chain 5 L8A: the ratio to parent was found to be 0.711.

Turning to chain 5 L8I, the ratio to parent turned out to be 0.758.

Regarding chain 5 L8T, the ratio to parent stood at 0.671.

Consider chain 5 L8Y, for which the ratio to parent came out at 0.848.

Consider chain 5 S1K, for which the ratio to parent turned out to be 0.685.

For the variant chain 5 S1Y, the ratio to parent stood at 0.689.

Regarding chain 5 S1A, the ratio to parent worked out at 0.322.

Take chain 5 S1V: the ratio to parent stood at 0.126.

As to chain 5 S1H, the ratio to parent turned out to be 0.559.

For chain 5 S1I, the ratio to parent came to 0.00825.

For the variant chain 5 S1N, the ratio to parent came to 0.305.

As to chain 5 S1F, the ratio to parent is 0.0691.

Turning to chain 5 S1G, the ratio to parent came to 0.491.

In a further assay the parent is B2. The assay can be described thus: % of reporter cells activated (NFAT-GFP), raw.
As to chain 5 S1D, the ratio to parent came out at 0.911.

Regarding chain 5 S1E, the ratio to parent stood at 0.93.

chain 5 S1H: the ratio to parent was 0.979.

Turning to chain 5 S1I, the ratio to parent was 0.745.

With chain 5 S1W, the ratio to parent amounted to 0.616.

chain 5 S1Y: the ratio to parent turned out to be 0.97.

chain 5 S1P: the ratio to parent was found to be 0.808.

As to chain 5 S1V, the ratio to parent was 0.9.

As for chain 5 S1C, the ratio to parent worked out at 0.604.

chain 5 S1R: the ratio to parent amounted to 0.785.

With chain 5 S1Q, the ratio to parent came to 0.983.

chain 5 S1G: the ratio to parent amounted to 0.933.

As for chain 5 S1L, the ratio to parent is 0.793.

On to chain 5 L8A, for which the ratio to parent was determined as 0.819.

Regarding chain 5 L8S, the ratio to parent turned out to be 0.78.

Take chain 5 L8P: the ratio to parent stood at 0.996.

Turning to chain 5 L8W, the ratio to parent was 0.734.

In the case of chain 5 L8D, the ratio to parent is 0.785.

Regarding chain 5 L8Q, the ratio to parent was determined as 0.894.

As to chain 5 L8R, the ratio to parent was found to be 0.997.

Turning to chain 5 E6C, the ratio to parent was 0.0832.

On to chain 5 E6W, for which the ratio to parent was determined as 0.0831.

chain 5 E6I: the ratio to parent was 0.0493.

Take chain 5 E6F: the ratio to parent came to 0.226.

Regarding chain 5 E6R, the ratio to parent stood at 0.936.

Take chain 5 E6K: the ratio to parent came to 0.949.

Turning to chain 5 E6P, the ratio to parent amounted to 0.554.

As to chain 5 E6T, the ratio to parent stood at 0.46.

As to chain 5 F5M, the ratio to parent amounted to 0.981.

For chain 5 F5L, the ratio to parent came to 1.05.

chain 5 F5Y: the ratio to parent was found to be 1.05.

Regarding chain 5 F5D, the ratio to parent worked out at 0.905.

Take chain 5 F5V: the ratio to parent came to 0.909.

Consider chain 5 F5E, for which the ratio to parent was 0.856.

As to chain 5 F5P, the ratio to parent is 1.03.

In the case of chain 5 I3L, the ratio to parent is 1.03.

With chain 5 I3T, the ratio to parent worked out at 0.952.

For chain 5 I3W, the ratio to parent was determined as 0.869.

In the case of chain 5 I3P, the ratio to parent was 0.927.

On to chain 5 I3V, for which the ratio to parent was found to be 0.872.

Take chain 5 I3Y: the ratio to parent came out at 0.966.

In the case of chain 5 I3H, the ratio to parent is 1.

With chain 5 I3E, the ratio to parent stood at 0.924.

Take chain 5 I3C: the ratio to parent was 0.989.

Regarding chain 5 I3K, the ratio to parent amounted to 0.851.

Regarding chain 5 I2C, the ratio to parent was 0.995.

For chain 5 I2D, the ratio to parent amounted to 0.924.

With chain 5 I2S, the ratio to parent stood at 1.01.

As to chain 5 I2A, the ratio to parent was found to be 1.04.

Regarding chain 5 I2H, the ratio to parent came out at 0.926.

Consider chain 5 I2Y, for which the ratio to parent was found to be 0.814.

Regarding chain 5 I2W, the ratio to parent is 0.861.

Consider chain 5 I2M, for which the ratio to parent stood at 0.976.

Regarding chain 5 I2T, the ratio to parent is 1.01.

Consider chain 5 K7S, for which the ratio to parent amounted to 0.785.

Turning to chain 5 K7C, the ratio to parent came out at 0.374.

In the case of chain 5 K7P, the ratio to parent was found to be 0.667.

As for chain 5 K7W, the ratio to parent was 0.717.

As for chain 5 K7Y, the ratio to parent came to 0.745.

For chain 5 K7D, the ratio to parent was 0.141.

Take chain 5 K7R: the ratio to parent is 1.02.

On to chain 5 K7F, for which the ratio to parent came out at 0.261.

Take chain 5 N4Q: the ratio to parent was determined as 0.015.

Regarding chain 5 N4V, the ratio to parent was 0.0259.

Regarding chain 5 N4G, the ratio to parent came out at 0.182.

In the case of chain 5 N4P, the ratio to parent is 0.0248.

For the variant chain 5 N4M, the ratio to parent is 0.00791.
